Experimental data as given in the supplement of paper PMC9170038.

Test system: K4 kissing-loop RNA reporter
Test: apparent KD of K4 kissing-loop reporter; higher = weaker reporter binding
Conditions: Eterna round: R107
Procedure: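 RNA-MaP round R107: designed RNA switches with theophylline, tryptophan, arginine or FMN aptamers are transcribed on-chip within common flanks. They are titrated with a labelled K4 kissing-loop RNA reporter in RNA-MaP buffer (100 mM Tris pH 7.5, 80 mM KCl, 4 mM MgCl2), without ligand or with the indicated ligand. Median apparent KD per design.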

[1] = input ligand: theophylline 20 uM
[2] = input ligand: tryptophan 2.4 mM
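Note: bound reporter read as fluorescence of individual clusters on recovered sequencing chips by microscopy, with normalized cluster intensities fitted with a binding model.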

Sequence	apparent KD of K4 kissing-loop reporter (input ligand: FMN 200 uM) [nM]	apparent KD of K4 kissing-loop reporter (input ligand: arginine 13.2 mM) [nM]	apparent KD of K4 kissing-loop reporter (input ligand: none) [nM]	apparent KD of K4 kissing-loop reporter [1] [nM]	apparent KD of K4 kissing-loop reporter [2] [nM]
GGCAUAGUCUCAACGUGUGGUUGGGUUGGGAAGGAUAUUUGAUCGAAAAGAAGGUCCCGCAUUGAGUGAUGUUCAAGGGCUCCAA [theeternabot_exclusion_KL_FMN_A_26]	226	220	262	213	246
GGCGAAUAAAAUCGCCUAGAGAGAAAGGAUACCAGCACCCGGCGGUGCCCUUGGCAGCCUAGCCCAGUGAUGUUGGGUCCUCUAA [Biaveinbe]	263	121	140	345	206
GGCUCCUACGGAGGAUAUAGUAGCCCAGAGUGAUGUUCUAGGGUGUUUUCCGAUUUAGUCAUUGUUCUAGAAGGCCGUAGGAGCC	266	177	189	183	210
GGCUUAUUCUAUGAUACCAGCGUCACAUCGGGACUGCGCACGCAGCAGGCGAGUGAUGUUCGCCCUUGGCAGCAUCUCGGCGACU [theeternabot_exclusion_KL_Theo_B_26]	373	230	249	250	232
GGCUUGCCAGUGAUGUUGGCAUAAACUGAAGGAGCGCGUGAAAACGCAGGUAGGUCGCAGAACCUUGCCAACUAUUUUAUUUGCC [Ex Arginine A K4 24]	192	223	212	252	210
GGGAAGAAGGCGGCCGCCACUGCAGAAGAGACAGAGAGGGAAGAAGAGGAGUGAUGUUCCAAGAACAGGACCGGGCCAAGAAGGG [whbob_SS_Tryp_B_t29]	598	137	119	284	92.9
GGGAAGGAGUGAUGUUUCUUCUGAAUUUCUAAGGAUAUACGAUGCGGUAGAAGGUAGAUGCCUUGCAGGAAAUGUUCACCACGCG [theeternabot_exclusion_KL_FMN_A_2]	218	146	150	184	158
GGGAGUAGUGCGGCCGCCACUGAGAAAGAAGAAGAAUAUAGUGAUGUUAUGUGGGAAAGGAAGAACAGGACCGGGCAUUAGAUUU [#21 K4 Tryptophan B Same State]	821	450	488	441	499
GGGAGUAGUGCGGCCGCCACUGAGAAAGAAGAAGAAUGUAGUGAUGUUAUGUAGGAAAGGAAGAACAGGACCGGGCAUUAGAUUU [SSTRyptB.H]	478	443	354	840	497
GGGUCAGUCUGAAGGAGCGGCCAGACAGAGCAGUGAUGUUGCUCCUCCGGAAACGGUGUCGGCCAGGUAGGUCGCAGAUUGGCUC [Dienralais mod v1]	153	122	137	126	124
GGGUUGAACUGAAGGAGCGAGAAAUAGAAAGUAAGAAGAUAAGCUAGUGAUGUUAGAAAUUCUCAGGUAGGUCGCAGUAAGAAUU [V3]	338	325	354	280	258
GGUAGCAUGAUGGAUACCAGUCCAAAUGGAGUGAUGUUCCAACAACAGGUUAGGCUGCUGGACCCUUGGCAGCCGUCAUGCUACC	141	120	160	121	133
GGUAGCAUGGCGGCCGCCACUAACAACCUCACCUGCGGCUCGAUCGAGUGAUGUUCGAACGCAAUUAGGACCGGGCCAUGCUACC	243	64.8	141	143	122
GGUAGCAUGGCGGCCGCCACUCGCAUCACAGGCCAUUAACCGCCCUCGUAAAGUGAUGUUUUACAGAGGACCGGGCCAUGCUACC	331	257	297	323	195
GGUAGCAUGGCGGCCGCCACUGAGGCCCUAUACGAGUCCUAAACAACCUAGUGAUGUUAGGAGUCCAGGACCGGGCCAUGCUACC	271	175	254	262	440
GGUAGUGCUAGCGAUACCAGUCAUAUCGCUCUGGAGUGAUGUUCCGGAACGUGCGGAGAAGACCCUUGGCAGCGCUUGACGGUGU [Exclusion Theophylline B GF5]	218	234	318	251	298
GGUCCGCGGUCGGCCGCCACUGAACAAGACCAGUGAUGUUGGAUCUUCCAGUGCGUUGGCUUUAACAGGACCGGGACCGUGGAGC [Titia]	139	132	145	140	164
GGUGACAACCAGAGGUGAUGUAUAGUAUCGCGAGGACCGGUACGGCCGCCACUCGUGAAGAGAAAGGAGUGAUGUUCCGUAAUGG [Kazoo C7]	287	276	272	390	138
GGUGUGCCAGUGAUGUUGGCAUAAACUGAAGGAGCGCGUGAAAACGCAGGUAGGUCGCAGAACCUUGCCAACUAUUUUAUUCACC [Ex Arginine A K4 25]	181	174	176	236	168
GGUUAGUGAUGUUGAUCAAAUCGCGGUGAUACCAGCAACACAUCGUGCCCUUGGCAGCACGGCAAAAUGAAUGCGGUCGAAUGCG [theeternabot_exclusion_KL_Theo_A_19]	487	484	546	478	412
GUACGGCGGGCGGCCGCCACUGGUAUACGAGUGAUGUUCGGAUAUACGUGAUGUAUGGUAAUUAACAGGACCGGGUCAGGGCCGG [whbob_SS_Tryp_B_t23]	115	158	229	147	119

Sequence	apparent KD of K4 kissing-loop reporter (input ligand: FMN 200 uM) [nM]	apparent KD of K4 kissing-loop reporter (input ligand: arginine 13.2 mM) [nM]	apparent KD of K4 kissing-loop reporter (input ligand: none) [nM]	apparent KD of K4 kissing-loop reporter [1] [nM]	apparent KD of K4 kissing-loop reporter [2] [nM]
GUAGCACUUGACAGUGAUGUUGUCAAGGACAAGGAUAUCAUCUCAAUGAGAAGGUGUCCUUGAUAACAGCUACGGGAAUAUCCCA [Omei KL FMN A Exc D v3]	312	108	136	120	123
GUAGCACUUGAUAGUGAUGUUAUCAAGGACAAGGAUAUCAUCUCAAUGAGAAGGUGUCCUUGAUAACAGCUACGGGAAUAUCCCA [Omei KL FMN A Exc D v1]	103	267	288	280	312
GUAGGAUGAGGAGGAGGAUGAAUUACUGAAGGAGCGCAUAUAAAUGCAGGUAGGUCGCGGUAAAGAAGUAUAGUGAUGUUAUAUA [SSArgA.G]	421	636	580	438	329
GUCAUCAGAUCGCAAGAUCUGAUAGCCGAUACCAGCGCGAAGGUGCGCCCUUGGCAGCGGCACCGAGUGAUGUUCGGUCAGACGG [#2 Same State - Theophylline A Attempt #4 (HarryS)]	658	796	776	440	594
GUCCCAGUGAUGUUGGUAGGCGGGCGGGAUACCAGCGGAGACUCACGCCCUUGGCAGCCCACAUAUCCCGCGUAGGGAUUAGCCC [Same State - Theophylline A (Freestyle 23)]	285	258	316	339	275
GUCCCGAGUGAUGUUCGGGUCGUUCGGGAAGGAGCGCCCGGAAGGGCAGGUAGGUCGCCCGGAUCCCUCAGGUAACUGAGGGACC [#2 Same State - Arginine A Attempt #25 (HarryS)]	483	334	553	450	466
GUCCCGAGUGAUGUUCGGGUCGUUUGGGAAGGAGCGCCCGGAAGGGCAGGUAGGUCGCCCGGACCCUGCAGGUAACUGUUGGGCC [#2 Same State - Arginine A Attempt #19 (HarryS)]	206	154	210	215	194
GUCUCAAAAGAGGCAAGCACUAACGAGGACAAGGAUAUCAUCUCAAUGAGAAGGUGUCCUCGUCCUUAGUGAUGUUAAGGAGUGC [Omei KL FMN A SS E v5]	348	226	211	376	356
GUGCGCGCGGCGGCCGCCACUCGCAUGAGAGUGAUGUUCUCACCGUGACCGUAAGGUCGCGGUGUGAGGACCGGGCCGGGCUGCG [#2 Same State - Tryptophan B Attempt #24 (HarryS)]	181	114	207	59.5	270
GUGCGCGGUGCGGCCGCCACUCGGAUGCGAGUGAUGUUCGCGGGACGGACGCAAGUCCGUCAUUCGAGGACCGGGCAUGGCUGCA [#2 Same State - Tryptophan B Attempt #6 (HarryS)]	197	196	242	183	137
GUGCGGCUAGUGAUGUUGGUUGUGUGGGAAGGAGCGCAGAUUCAUGCAGGUAGGUCGCCCACACCUCUGAAAGGAGGCUAAUUCA [KL-SSArg-A16]	453	300	315	368	331
GUGCGGCUAGUGAUGUUGGUUGUGUGGGAAGGAGCGCAGAUUCAUGCAGGUAGGUCGCCCACACGUCUGAAAGGAUGAUAAUUCA [#12 K4 Arginine A Same State]	409	306	354	407	350
GUGGCACGAAAGUGCCACGCAUCCUCUCCCUAGGAUAUCUGGAAACAGAGAAGGAGGUCAUGAGUGAUGUUCAUCCAGAGGAUGC	258	677	756	738	491
GUUACGCAUGGAAGGAGCGCAGGCUCAACUUGAAGCUCAGUGAUGUUGAGCAAAUUAAAACUGCAGGUAGGUCGCCAUGUGUAAC [Ex Arginine B K4 27]	548	474	655	644	448
GUUACGCAUGGAAGGAGCGCAUGCUCAACAAUAAGCUCAGUGAUGUUGAGCAAAAUUAAAAUGCAGGUAGGUCGCCAUGUGUAAC [Ex Arginine B K4 28]	542	519	576	528	555
GUUAUGGACCUGGAUACCAGCUGGUACAAGGUCGGUCUACAUGAGUGAUGUUCAUGUGUCAGCCCUUGGCAGCCAGCAACCGGCA [KL-XTheo-B10]	90.3	97.1	101	119	86.2
UAAGAAUAAGUAGCAGUGAUGUUGCUACUACGAGGACCGGUACGGCCGCCACUCGAGUCCUCGAAACAUCACUGAACGAGGAAUA [(H,1)-(H,2)-(Trp1)-(Trp2)-(T)'-(H)'-(T)'']	231	150	201	136	358
UAAGAGGACCACUGCAAGAGUCCUCGAAUACGAGGACCGGUACGGCCGCCACUCGAUAACUUGUAGUGAUGUUGCAAGUAAGAAU [BrourdMod 1 - Jieux - Same State Tryptophan A]	71.2	79.2	79.4	79.2	42.9
UAAGAGGACCACUGCGAGAGUCCUCGAAUACGAGGACCGGUACGGCCGCCACUCGAUAAUUUGCAGUGAUGUUGCAAGUAAGAAU [BrourdMod 6 - Jieux - Same State Tryptophan A]	64.5	114	82.4	104	48.6
UAAGAGUCUCUGCAAUUAGCAGAGACUCAACGAGGACCGGUACGGCCGCCACUCGGGUCCUAGAGUGAUGUUCUAAUAAUAUAAU [AK1.1 SS Tryptophan A]	273	359	548	425	176
UACAUUGCAGUCUUCUUCGUCCUAGAUGACUAGGAUAUCAGGAAACUGAGAAGGAGUCACUGCAGUGAUGUUGCAGCUAGGACGA [KL-SSFMN-A9]	110	118	110	121	105
